Data published in the supplement of paper PMC9170038.

Test system: MS2 coat protein
Experiment: apparent KD of MS2 coat protein; designed switch direction (-1 OFF switch, 1 ON switch): -1; higher = weaker reporter binding
Method in brief: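 SNAP-549-labelled MS2 coat protein was titrated, doubling from 0.7 or 1.5 nM to 3 µM, over designed RNA switches transcribed on Illumina chips by stalled E. coli RNA polymerase. Runs were done without input, with 200 uM small-molecule ligand, or with an oligonucleotide input. Apparent KD is the per-design median over clusters of curve-fitted normalised fluorescence.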

[1] = Eterna round: R95, input ligand: FMN 200 uM
[2] = Eterna round: R95, input ligand: microRNA oligo, concentration not stated
[3] = Eterna round: R95, input ligand: none
[4] = input ligand: microRNA oligo, concentration not stated

Sequence | apparent KD of MS2 coat protein [2] [nM] | apparent KD of MS2 coat protein (input ligand: FMN 200 uM) [nM] | apparent KD of MS2 coat protein (input ligand: none) [nM] | also measured
CCGGAAAUAGAGGAUAUAGGACUCGAUAGAGUCCUAGAAGGCUAUACAUGAGGAUCACCCAUGUGUCCUACCGG [Fiskers Ex 6 - 64] (puzzle: Exclusion 6) | 13.6 |  |  | apparent KD of MS2 coat protein [1]: 40.7 nM; apparent KD of MS2 coat protein [3]: 13.4 nM
AUUAUUUCAGGAUAUGCCUUCAAAGACAUGAGGAUCACCCAUGUUUUCAGUGGCAGGAUCGCAGAAGGGAGAUAUU [EX5 C.29] (Eterna round: R97, puzzle: Exclusion 5) |  | 15.6 | 14.4 | 
UAUCCACAUGAGGAUCACCCAUGUGAGGAUAUGUCCAUAUUCGGCAAAUCGGAUAUGGACAGAAGGCACACCGG [JR_Exclusion1_Sub011] (puzzle: Exclusion 1) | 35.4 |  |  | 
CUUCGUAUAGAGGAUAUAGGAUACUGCGGUGUCCUAGAAGGCUGUACAUGAGGAUCACCCAUGUACUUCAGAUC [Exclusion 6 - B - 14:c] (puzzle: Exclusion 6) | 12 |  |  | 
CCGGAUAUGCAGGAUAUCGUAUCGGAUACGAUACGAGAAGGGUAUACAUGAGGAUCACCCAUGUGUCCUACCGG [Mat - Exclusion 6 - Eli Mod - D85] (puzzle: Exclusion 6) | 19.8 |  |  | 
UUAUAUAGUGUGAGGAUAUGCUGGUCCUUGGAUCAGCAGAAGGCACAUGAGGAUCACCCAUGUAAUAUAUUAUU [JL bmx4 3.07] (puzzle: Brourd's mod of Exclusion 4) | 58.2 |  |  | 
UACCAGGUUCAGGAUAUGCCCUCGAAGAGAGGCGCAGAAGGGAACACAUGAGGAUCACCCAUGUCAGCCGCUUC [Eternabot (Original) Solution 45] (Eterna round: R97, puzzle: Exclusion 6) |  | 26.6 | 17.1 | 
UUUAAUUUUUUUUUUUUACAAGCUUUUUGCUCGUCUUAUACAUGAGGAUCACCCAUGUGGGUGAAAGAUAAAUUAUC [JMF 5] (puzzle: Sensor v3, turn-off variant 2) | 19.2 |  |  | apparent KD of MS2 coat protein [1]: 54.9 nM; apparent KD of MS2 coat protein [3]: 37.6 nM
GAUUGCUCGUCUUGAAAACACAUGAGGAUCACCCAUGUAACUAGGGAAACCACGAUUAUAUUCGCUUUUCAGUGUAA [Eternabot (L2) Solution 2] (Eterna round: R97, puzzle: Sensor, turn-off variant 1) |  | 29.6 | 34.2 | 
GGUUGACAUGAGGAUCACCCAUGUGAGGAUAUGCGAGAGAAAAAAGUGAGGAAGAGAUGCAGAAGGCGCUGUCG [salish99-ex1_r3_016] (puzzle: Exclusion 1) | 85.8 |  |  | apparent KD of MS2 coat protein [1]: 68.5 nM; apparent KD of MS2 coat protein [3]: 121 nM
UAUUUACAUGAGGAUCACCCAUGUUAGGAUAUGUUUCUAUCGUCGAAAGAUGAUAUUUGCAGAAGGGACAAUAU [LRO-Excl01-28 mod derived from EliFisker 4.24] (Eterna round: R97, puzzle: Exclusion 1) |  | 24 | 24.3 | 
CUAAAUCAUGUAGGAUAUGCGUGGCAAAGCUAUGCAGAAGGACAUGAGGAUCACCCAUGUGCUUCCGUCUGAGUACAGACGGUA [Mat - Exclusion NG 1 - Mod of JL - D22] (Eterna round: R96, puzzle: Exclusion NG 1) |  | 622 | 98.2 | apparent KD of MS2 coat protein [4]: 72.9 nM
AGCCUAGCAGGAUAUGCCCGGGAUAACAUGAGGAUCACCCAUGUGACCGAUUGAUGUCUUGCAGAAGGGCUAGGGA [JL-EX5-4.02 ViennaUCT mod] (Eterna round: R97, puzzle: Exclusion 5) |  | 58.4 | 15.7 | 
UAAUGUAUAUAGGAUAUCUAGCUGGAAACAGCUAGAGAAGGAUGUACAUGAGGAUCACCCAUGUAAAUCUCAAU [Ex6/12-B1] (Eterna round: R97, puzzle: Exclusion 6) |  | 27.4 | 19.1 | 
CUUAGGGCGGAGGAUAUGCCGUGGGCGAAUACAGUAGAAGGCCGCACUUGAGGAUCACCCAAGUAUGGUCAAAC [Inusisbeor] (Eterna round: R97, puzzle: Exclusion 6) |  | 15.4 | 13.1 | 
AGUGGGCUAGGAUAUCGAUGAACUCACAUGAGGAUCACCCAUGUGUCUUCGGUGGGCGCGCGAGAAGGAGUGAGAU [Belaange] (puzzle: Exclusion 5) | 26.9 |  |  | apparent KD of MS2 coat protein [1]: 63.6 nM; apparent KD of MS2 coat protein [3]: 37.9 nM
CACCGUUACCGAGGAUAUCGUACAUGAGGAUCACCCAUGUAAUAAAUGAGAAUUUCGGAUGUAUGCGAGAAGGCGGGAAUCGGC [Ostracism 35 - Jieux - Exclusion NG 2] (Eterna round: R96, puzzle: Exclusion NG 2) |  |  |  | apparent KD of MS2 coat protein [4]: 24.8 nM
GGCGAGGGAGGAUAUACGUGAUUGAUGCCGGGAACCCAGAGACAUGAGGAUCACCCAUGUAGAAGGCCCGGCUA [EX2 B.4] (Eterna round: R97, puzzle: Exclusion 2) |  | 10.9 | 14.5 | 

Sequence | apparent KD of MS2 coat protein [2] [nM] | apparent KD of MS2 coat protein (input ligand: FMN 200 uM) [nM] | apparent KD of MS2 coat protein (input ligand: none) [nM] | also measured
GGCCCGCGCGUGAGGAUAUGCUGAUACUAGGAUUAGCAGAAGGCACAUGAGGAUCACCCAUGUCCAACUUGUCU [LRO-BmodExc4-11- Bluer = mod of Colors by Tatyana Zabanova] (Eterna round: R97, puzzle: Brourd's mod of Exclusion 4) |  | 34.4 | 24.5 | 
GAACUGAAGCAAAGCUUUAGUCGUACAUGAGGAUCACCCAUGUAGGAUAUGGUAGGCAAAGCUUACUAGAAGGACAGAGUGAUC [Mat - Exclusion NG 3 - Mod of JL - D70] (Eterna round: R96, puzzle: Exclusion NG 3) |  | 338 | 336 | apparent KD of MS2 coat protein [4]: 336 nM
CCAUCGAGUGUGAGGAUAUGCUGUUCCUUGGAGCAGCAGAAGGCACAUGAGGAUCACCCAUGUGGAUACGGUGG [Mat - Exclusion 4 - JL Mod - D80] (puzzle: Brourd's mod of Exclusion 4) | 33.4 |  |  | 
CUUCGUGUCAAGGAUAUACAGCAACUAUCCGGAGUAGAAGGUGGCACUUGAGGAUCACCCAAGUGCGUGGGUGU [Uszaqubi] (Eterna round: R97, puzzle: Exclusion 6) |  | 33.5 | 25.7 | 
UAGUGGCAAGGAUAUACAGUGGAGAGGAUUGCAAGAGGUGGACAUGAGGAUCACCCAUGUAGAAGGUGCAGAGA [JR_Exclu2_Sub023] (puzzle: Exclusion 2) | 203 |  |  | 
AGUGCGUAUGUGAGGAUAUGCUGGUCCUUGGCUCGGCAGAAGGCACAUGAGGAUCACCCAUGUGGUGUCGUACC [salish99_Bmod_ex4_059] (puzzle: Brourd's mod of Exclusion 4) | 25 |  |  | 
AGUAACAGAGGAUAUACUAUUUUAUGUGUUUGUUGUUUUAAACAUGAGGAUCACCCAUGUAGAAGGCUGAAUAA [JMF 88] (puzzle: Exclusion 2) | 19 |  |  | 
AAUAACAGAGGAUAUACUGUUUUAUGUGUUUGUUAUUUUGAACAUGAGGAUCACCCAUGUAGAAGGCUGAAUAA [JMF 23] (puzzle: Exclusion 2) | 21.3 |  |  | 
CUUUGGUCAGGAUAUGGUGGGCUGGUCGCGCGGCCGGGUGGCCAGAAGGGACAUGAGGAUCACCCAUGUACGGC [excls4-X] (Eterna round: R96, puzzle: Exclusion 4) |  | 106 | 84.3 | apparent KD of MS2 coat protein [4]: 53 nM
AAGAAACAUGAGGAUCACCCAUGUGAGGAUAUGGCCCGCCCGGCGUGAGCAAAAUAAAUCAGAAGGCACAAAGG [salish99_ex1_r4_009] (Eterna round: R97, puzzle: Exclusion 1) |  | 41 | 30.6 | 
GCAUCCAAUGUGAGGAUAUACCUCUGGAUACAGAGGUAGAAGGCACAUGAGGAUCACCCAUGUUACUAGGAUGC [Fiskers BMX 4 - 36] (puzzle: Brourd's mod of Exclusion 4) | 19.3 |  |  | 
UUGACGGCAGGAUAUACAUGAGGAUCACCCAUGUAAAUUUUUCGUUUAACUUGAAUGUGUAGAAGGGCCAACUU [Ex3 #73] (Eterna round: R97, puzzle: Exclusion 3) |  | 18.6 | 16.8 | 
CGUGGCCGGUGAGGAUAUUGAUGACAUGAGGAUCACCCAUGUGUAUCCUCUCGAAAUACCGUGAUCAAGAAGGCAUGGUGCCAC [Ritibe] (Eterna round: R96, puzzle: Exclusion NG 2) |  | 68.5 | 14 | apparent KD of MS2 coat protein [4]: 12 nM
AGAGUGCUGCGAGGAUAUACAUGAGGAUCACCCAUGUGGAUCUGUGAGGGAAAACCUCACAGGAUGUAGAAGGCGCAGUACUCA [Mat - Exclusion NG 2 - Mod of JL - D50] (Eterna round: R96, puzzle: Exclusion NG 2) |  | 134 | 37.2 | apparent KD of MS2 coat protein [4]: 15.8 nM
GUCAGCUCGUGAGGAUAUACAUCACUGCUUCGGCAGUGUAUUAAGAUCACAUGAGGAUCACCCAUGUAGAAGGUACGAGCUGAU [ENG2/2-C2] (Eterna round: R96, puzzle: Exclusion NG 2) |  | 214 | 26.9 | apparent KD of MS2 coat protein [4]: 17.6 nM
CCUCUACAUGAGGAUCACCCAUGUGAGGAUAUAAGAUUGCGGAUUCCGCACUACGGUCUUAGAAGGCGCGUGGA [Texebibia] (puzzle: Exclusion 1) | 17.2 |  |  | 
CCGGUGUGAGGAUAUCCAUCUGGAUCAGACUAGAUCCUGAUGGAGAAGGCACAUGAGGAUCACCCAUGUUACGG [Eli 4x 4.42] (Eterna round: R97, puzzle: Exclusion 4) |  | 567 | 656 | 
AUAAAGAACUCAGGAUAUUAGAGAAACGGACAUGAGGAUCACCCAUGUGCGCCUGAUGCCGAGAAUAAGAAGGGAGAAUAGAAA [Rearbi] (Eterna round: R96, puzzle: Exclusion NG 2) |  | 131 | 27.4 | apparent KD of MS2 coat protein [4]: 16.7 nM
